Reference: patent US20130296252A1 (University of Texas, published 2013)
Bridge positions count the residues as written; N and C are the ends. Ends that are not written are not given here.

B1: CLFMRLAWC-phage (phage displaying the cyclic peptide CLFMRLAWC) (peptide)
peptide: CLFMRLAWC
modifications: disulfide 1-9 (inferred); also: displayed on phage
notes: also called phage clone displaying the peptide motif Arg-Met-Phe-Leu
B2: H111-S120 phage (phage clone displaying the mouse MUC18-derived peptide HDERMFLCKS, residues H111-S120 of MUC18) (peptide)
peptide: HDERMFLCKS
notes: also called MUC18-derived phage; MUC18-derived (H111-S120) phage
B3: mouse MUC18 (melanoma cell adhesion molecule) (receptor, UniProt Q8R2Y2 24-648, looked up)
chain: VPGEEKQPVPTPDLVEAEVGSTALLKCGPSRASGNFSQVDWFLIHKERQILIFRVHQGKGQREPGEYEHRLSLQDSVATLALSHVTPHDERMFLCKSKRPRLQDHYVELQVFKAPEEPTIQANVVGIHVDRQELREVATCVGRNGYPIPQVLWYKNSLPLQEEENRVHIQSSQIVESSGLYTLKSVLSARLVKEDKDAQFYCELSYRLPSGNHMKESKEVTVPVFYPAEKVWVEVEPVGLLKEGDHVTIRCLTDGNPQPHFTINKKDPSTGEMEEESTDENGLLSLEPAEKHHSGLYQCQSLDLETTITLSSDPLELLVNYVSDVQVNPTAPEVQEGESLTLTCEAESNQDLEFEWLRDKTGQLLGKGPVLQLNNVRREAGGRYLCMASVPRVPGLNRTQLVSVGIFGSPWMALKERKVWVQENAVLNLSCEASGHPQPTISWNVNGSATEWNPDPQTVVSTLNVLVTPELLETGAECTASNSLGSNTTTIVLKLVTLTTLIPDSSQTTGLSTLTVSPHTRANSTSTEKKLPQPESKGVVIVAVIVCTLVLAVLGAALYFFYKKGKLPCGRSGKQEITLPPTRKSEFVVEVKSDKLPEEMALLQGSNGDKRAPGDQGEKYIDLRH
notes: whole, on cells; Present on B16 melanoma cells before and after co-culture with B-1 lymphocytes; In the immunocapture assay it was captured from cell membrane extracts by anti-MUC18 antibody; In Western blot and co-IP it came from cell membrane extracts; also called MCAM; native mouse MUC18

Legend:
[1] = target: B3; assay: phage binding (relative TU) to B16 melanoma cells post versus pre co-culture with B-1 lymphocytes
[2] = target: B3; assay: phage binding (relative TU) to B16 melanoma cells post co-culture with B-1 lymphocytes
[3] = target: B3; assay: phage binding to B16 melanoma cells post versus pre co-culture with B-1 lymphocytes
[4] = target: T1, human MUC18 on human melanoma cell lines (human, UniProt P43121 24-646); assay: phage binding to a panel of 8 human melanoma cell lines
T1 construct: whole, on cells; also called MCAM; CD146
T1 sequence (looked up): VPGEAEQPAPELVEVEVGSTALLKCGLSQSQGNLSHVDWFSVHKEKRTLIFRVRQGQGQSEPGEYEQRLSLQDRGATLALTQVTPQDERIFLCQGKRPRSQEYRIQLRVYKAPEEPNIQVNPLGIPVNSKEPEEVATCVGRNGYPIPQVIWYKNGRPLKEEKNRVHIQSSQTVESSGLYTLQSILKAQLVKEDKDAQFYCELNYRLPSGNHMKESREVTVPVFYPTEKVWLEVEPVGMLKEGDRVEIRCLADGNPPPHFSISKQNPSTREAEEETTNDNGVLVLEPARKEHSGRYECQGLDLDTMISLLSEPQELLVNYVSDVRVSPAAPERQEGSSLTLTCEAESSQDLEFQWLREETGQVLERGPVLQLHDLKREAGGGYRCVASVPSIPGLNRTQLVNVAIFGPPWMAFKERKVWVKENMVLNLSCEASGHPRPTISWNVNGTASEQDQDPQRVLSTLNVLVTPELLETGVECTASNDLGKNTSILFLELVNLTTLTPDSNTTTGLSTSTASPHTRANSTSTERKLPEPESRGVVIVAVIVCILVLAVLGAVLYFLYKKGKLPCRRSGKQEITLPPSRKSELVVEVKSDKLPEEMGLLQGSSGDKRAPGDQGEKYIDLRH

[5] = target: B3; assay: alanine-scanning phage binding to melanoma cells
[6] = target: the molecule itself; assay: conclusion drawn from phage binding, immunocapture, antibody inhibition and shRNA experiments

With B1 the “fold increase in phage binding relative to melanoma cells without co-culture with B-1 lymphocytes” value [1] was about 12 fold and the “fold increase in phage binding relative to control insertless phage” value [2] was about 20 fold.

B2 was tested, and the “fold increase in phage binding relative to baseline binding to melanoma cells pre co-culture with B-1 lymphocytes” value [3] was 2.5 fold and the binding result [4] was “binds”.

HDEAMFLCKS (Numbering counts on mouse MUC18) [H111-S120 phage with Arg114 mutated (alanine scanning)]: no binding [5].

HDERMFLAKS (Numbering counts on mouse MUC18) [H111-S120 phage with Cys118 mutated (alanine scanning)]: no binding [5].

HDERMFLCAS (Numbering counts on mouse MUC18) [H111-S120 phage with Lys119 mutated (alanine scanning)]: no binding [5].

HDERMFLCKA (Numbering counts on mouse MUC18) [H111-S120 phage with Ser120 mutated (alanine scanning)]: no binding [5].

B3: binds [6].
